Legend:
[1] = target: T1, PHD2 and PHD3 fingers of human MLL4 (aa 227-324) (human, UniProt O14686 227-324)
T1 chain: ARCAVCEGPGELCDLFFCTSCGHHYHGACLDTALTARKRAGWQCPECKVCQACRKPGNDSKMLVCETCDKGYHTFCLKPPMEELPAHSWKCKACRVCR

[2] = target: T2, PHD2 and PHD3 fingers of human MLL3 (aa 342-439) (human, UniProt Q8NEZ4 342-439); assay: other fluorescence titration; tryptophan fluorescence, 25 °C; 1.0 µM MLL4 PHD2/3 or MLL3 PHD2/3 with increasing peptide; excitation 295 nm; 20 mM Tris pH 7.2, 150 mM NaCl, 1 mM TCEP, 0.02% Tween20; average of three measurements; details: both partners purified
T2 construct: PHD2 and PHD3 fingers of human MLL3 (KMT2C), aa 342-439; 15N-labelled for NMR titrations; also used unlabelled as the titrant against MLL3 PHD4; also called MLL3_(PHD2/3); MLL3 PHD2/3; source: E. coli BL21-CodonPlus, purified (glutathione agarose, PreScission cleavage; unlabeled proteins also SEC)
T2 sequence (looked up): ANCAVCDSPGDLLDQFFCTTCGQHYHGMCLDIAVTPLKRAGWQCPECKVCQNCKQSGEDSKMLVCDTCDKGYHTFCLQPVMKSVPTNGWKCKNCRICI

[3] = target: T3, PHD2 and PHD3 fingers of human MLL4 (aa 227-324) (human, UniProt O14686 227-324); assay: not stated; fluorescence spectroscopy or NMR: the legends of Fig. 3c and Fig. 4b say that values marked (a) are from NMR and the others from fluorescence; the text does not tell which for these pairs; details: both partners purified
T3 construct: PHD2 and PHD3 fingers of human MLL4 (KMT2D), aa 227-324; also called MLL4_(PHD2/3); MLL4 PHD2/3; source: E. coli BL21-CodonPlus, purified (glutathione agarose, PreScission cleavage; unlabeled proteins also SEC)
T3 sequence (looked up): T1 chain

[4] = target: T4, PHD2 and PHD3 fingers of human MLL3 (aa 342-439) (human, UniProt Q8NEZ4 342-439)
T4 chain: T2 sequence (looked up)

B1: ASXL2 peptide (aa 650-670) R655I (peptide, UniProt Q76L83 650-670, looked up)
peptide: NRTGAITLADIKAKAQLVKAQ
notes: ASXL2, residues 650-670; R655I is said to be associated with large intestine cancer; also called R655I mutant of ASXL2; source: synthetic peptide (SynPeptide)
In the case of B1, the Kd [1] is reported as 11 µM, the binding result [2] is reported as “binds” and the “fold reduction in binding against the wild type ASXL2 peptide” value [3] is reported as about 16 fold. For the same binder, the Kd [4] was 10.5 µM.

Source: article PMC11161652, “ASXLs binding to the PHD2/3 fingers of MLL4 provides a mechanism for the recruitment of BAP1 to active enhancers” (Nature Communications, 2024)
